{"source": "patent US20120276124A1", "about": "(Sanofi, published 2012)", "data": [{"target": "EphA2 receptor (UniProt P29317 24-976, limits assumed)", "sequence (P29317 24-976 limits assumed)": "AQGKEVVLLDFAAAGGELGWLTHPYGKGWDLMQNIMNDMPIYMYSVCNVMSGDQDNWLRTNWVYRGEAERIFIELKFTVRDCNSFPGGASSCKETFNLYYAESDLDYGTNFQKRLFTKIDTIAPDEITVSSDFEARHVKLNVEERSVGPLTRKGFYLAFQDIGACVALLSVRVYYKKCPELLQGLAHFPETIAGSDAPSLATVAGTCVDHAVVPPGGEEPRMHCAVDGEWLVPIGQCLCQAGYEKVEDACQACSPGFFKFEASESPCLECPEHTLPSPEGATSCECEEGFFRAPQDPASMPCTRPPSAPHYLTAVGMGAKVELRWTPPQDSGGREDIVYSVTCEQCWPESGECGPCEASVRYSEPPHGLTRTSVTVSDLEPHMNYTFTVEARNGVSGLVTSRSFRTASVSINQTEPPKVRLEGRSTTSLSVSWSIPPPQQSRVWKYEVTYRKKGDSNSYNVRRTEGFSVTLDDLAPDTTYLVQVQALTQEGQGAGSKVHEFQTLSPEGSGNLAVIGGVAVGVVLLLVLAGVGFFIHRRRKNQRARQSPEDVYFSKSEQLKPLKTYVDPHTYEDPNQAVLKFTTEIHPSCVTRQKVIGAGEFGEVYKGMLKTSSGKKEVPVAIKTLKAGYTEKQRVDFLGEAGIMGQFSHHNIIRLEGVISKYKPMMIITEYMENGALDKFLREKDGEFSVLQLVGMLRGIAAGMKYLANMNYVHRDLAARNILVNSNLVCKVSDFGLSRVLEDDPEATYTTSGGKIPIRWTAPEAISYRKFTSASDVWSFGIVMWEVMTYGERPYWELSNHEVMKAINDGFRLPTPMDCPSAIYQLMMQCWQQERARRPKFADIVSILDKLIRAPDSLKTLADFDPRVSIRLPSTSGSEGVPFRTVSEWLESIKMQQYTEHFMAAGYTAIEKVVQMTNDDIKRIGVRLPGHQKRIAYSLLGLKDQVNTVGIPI", "experiment": "cell-based or functional assay", "units": {"IC50 [pM], +naked hu2H11R35R74 (1 uM); inhibition of growth of MDA-MB231 cells (14C-thymidine uptake)": "pM", "IC50 [pM], conjugate alone; inhibition of growth of MDA-MB231 cells (14C-thymidine uptake)": "pM"}, "values": [{"binder": "hu2H11R35R74-PEG4-NHAc-DM4 (antibody, human IgG1, kappa, V domains shown, may carry L-DM4 through the AcNH-PEG4 linker; sites not stated; maytansinoid L-DM4 attached through the AcNH-PEG4 linker (NHS activated ester; sites not stated); average DAR (UV) 5.9 for the whole antibody) VH: QVQLVQSGAEVVKPGASVKISCKASGYTFTAYYMHWVKQSPVQSLEWIGLVNPYNGFSSYNQKFQGKASLTVDRSSSTAYMELHSLTSEDSAVYYCAREFYGYRYFDVWGQGTAVTVSS VL: not shown", "IC50 [pM], +naked hu2H11R35R74 (1 uM); inhibition of growth of MDA-MB231 cells (14C-thymidine uptake)": 29700, "IC50 [pM], conjugate alone; inhibition of growth of MDA-MB231 cells (14C-thymidine uptake)": 147, "ratio (IC50 +naked hu2H11R35R74 / conjugate alone)": 202}, {"binder": "hu2H11R35R74-PEG8-NHAc-DM4 (antibody, human IgG1, kappa, V domains shown, may carry L-DM4 through the AcNH-PEG8 linker; sites not stated; maytansinoid L-DM4 attached through the AcNH-PEG8 linker (NHS activated ester; sites not stated); average DAR (UV) 4.9 for the whole antibody) VH: QVQLVQSGAEVVKPGASVKISCKASGYTFTAYYMHWVKQSPVQSLEWIGLVNPYNGFSSYNQKFQGKASLTVDRSSSTAYMELHSLTSEDSAVYYCAREFYGYRYFDVWGQGTAVTVSS VL: not shown", "IC50 [pM], +naked hu2H11R35R74 (1 uM); inhibition of growth of MDA-MB231 cells (14C-thymidine uptake)": 25000, "IC50 [pM], conjugate alone; inhibition of growth of MDA-MB231 cells (14C-thymidine uptake)": 400, "ratio (IC50 +naked hu2H11R35R74 / conjugate alone)": 62}, {"binder": "hu2H11R35R74-PEG4-NMeAc-DM4 (antibody, human IgG1, kappa, V domains shown, may carry L-DM4 through the AcNMe-PEG4 linker; sites not stated; maytansinoid L-DM4 attached through the AcNMe-PEG4 linker (NHS activated ester; sites not stated); average DAR (UV) 5.4 for the whole antibody) VH: QVQLVQSGAEVVKPGASVKISCKASGYTFTAYYMHWVKQSPVQSLEWIGLVNPYNGFSSYNQKFQGKASLTVDRSSSTAYMELHSLTSEDSAVYYCAREFYGYRYFDVWGQGTAVTVSS VL: not shown", "IC50 [pM], +naked hu2H11R35R74 (1 uM); inhibition of growth of MDA-MB231 cells (14C-thymidine uptake)": 36400, "IC50 [pM], conjugate alone; inhibition of growth of MDA-MB231 cells (14C-thymidine uptake)": 217, "ratio (IC50 +naked hu2H11R35R74 / conjugate alone)": 168}, {"binder": "hu2H11R35R74-PEG4-Allyl-DM4 (antibody, human IgG1, kappa, V domains shown, may carry L-DM4 through the Allyl-PEG4 linker; sites not stated; maytansinoid L-DM4 attached through the Allyl-PEG4 linker (NHS activated ester; sites not stated); average DAR (UV) 5.3 for the whole antibody) VH: QVQLVQSGAEVVKPGASVKISCKASGYTFTAYYMHWVKQSPVQSLEWIGLVNPYNGFSSYNQKFQGKASLTVDRSSSTAYMELHSLTSEDSAVYYCAREFYGYRYFDVWGQGTAVTVSS VL: not shown", "IC50 [pM], +naked hu2H11R35R74 (1 uM); inhibition of growth of MDA-MB231 cells (14C-thymidine uptake)": 7820, "IC50 [pM], conjugate alone; inhibition of growth of MDA-MB231 cells (14C-thymidine uptake)": 161, "ratio (IC50 +naked hu2H11R35R74 / conjugate alone)": 49}]}]}
